Consider one substance from patent US7098309.

Experiment [1] deals with plasma-derived Dane particles (hepatitis B virus). Kind of experiment: AUZYME sandwich ELISA on plasma-derived Dane particles. A general note: In an ELISA, binding on a coated surface is turned into a signal by an enzyme label.
Experiment [2] concerns the target improved recombinant hepatitis B surface antigen (rHBsAg) refolded in GSH/GSSG redox buffer, formalin omitted, formulated on alum (hepatitis B virus) (UniProt P03141). The experiment is described as follows: AUZYME sandwich ELISA; row label names the rHBsAg batch (redox buffer, no formalin, glass tank).
The target in experiment [3] is improved recombinant hepatitis B surface antigen (rHBsAg) refolded in GSH/GSSG redox buffer, with formalin, formulated on alum (Bulk Alum Product) (hepatitis B virus) (UniProt P03141). The experiment is described as follows: AUZYME sandwich ELISA; row label names the rHBsAg batch (redox buffer, with formalin, glass tank).
For experiment [4], the target named is recombinant hepatitis B surface antigen (rHBsAg) processed without redox buffer, with formalin, formulated on alum (Bulk Alum Product) (hepatitis B virus) (UniProt P03141). Kind of experiment: AUZYME sandwich ELISA; row label names the rHBsAg batch (no redox buffer, with formalin, glass tank).
Experiment [5] concerns the target improved recombinant hepatitis B surface antigen (rHBsAg) refolded in GSH/GSSG redox buffer, formalin omitted, formulated on alum (hepatitis B virus) (UniProt P03141). Kind of experiment: AUZYME sandwich ELISA; row label names the rHBsAg batch (redox buffer, no formalin, stainless steel tank).
The target of experiment [6] is recombinant hepatitis B surface antigen (rHBsAg) processed without redox buffer, with formalin, formulated on alum (Bulk Alum Product) (hepatitis B virus) (UniProt P03141). Kind of experiment: AUZYME sandwich ELISA on alum-formulated rHBsAg; row label names the rHBsAg preparation (group A, no redox buffer).
For experiment [7] the target is unchanged. Kind of experiment: AUZYME sandwich ELISA on alum-formulated rHBsAg; row label names the rHBsAg preparation (group B, no redox buffer).
For experiment [8] the target is unchanged. Kind of experiment: AUZYME sandwich ELISA on alum-formulated rHBsAg; row label names the rHBsAg preparation (group C, no redox buffer).
Experiment [9] deals with improved recombinant hepatitis B surface antigen (rHBsAg) refolded in GSH/GSSG redox buffer, with formalin, formulated on alum (Bulk Alum Product) (hepatitis B virus) (UniProt P03141). The experiment is described as follows: AUZYME sandwich ELISA on alum-formulated rHBsAg; row label names the rHBsAg preparation (group A, with 1.0 mM GSH and 0.2 mM GSSG).
Experiment [10] has the same target. The experiment is described as follows: AUZYME sandwich ELISA on alum-formulated rHBsAg; row label names the rHBsAg preparation (group B, with 1.0 mM GSH and 0.2 mM GSSG).
Experiment [11] has the same target. Kind of experiment: AUZYME sandwich ELISA on alum-formulated rHBsAg; row label names the rHBsAg preparation (group C, with 1.0 mM GSH and 0.2 mM GSSG).

“AUZYME monoclonal enzyme immunoassay antibodies: mouse monoclonal antibodies to hepatitis B surface antigen coated on beads, and mouse monoclonal Anti-HBsAg peroxidase conjugate (antibody)”: the ELISA response (in vitro relative potency scale) (relative to reference rHBsAg = 1.0) in [1] was determined as 5. The IVRP (in vitro relative potency) (relative to reference rHBsAg = 1.0) in experiment [2] came out at 4.62; in experiment [3], 4.32; in experiment [4], 2.51; in experiment [5], 4.3; in experiment [6], 2.09; in experiment [7] it was 1.69. Further, the IVRP (in vitro relative potency) (relative to reference rHBsAg = 1.0) in experiment [8] came out at 1.44; in experiment [9], 3.56; in experiment [10], 2.7; in experiment [11], 2.47.
